Data from patent US10494417B2, “Peptide inhibitors of BCR-ABL oligomerization” (University of Utah Research Foundation, priority 2014, dated 2019).
Several values for one entry are separate records, joined by “and”; a condition that tells them apart may be missing. Equal values may be shown once. Entries after “also recorded” stand apart in the source; their conditions may differ.

What was measured:
Assay type in all cases: cell-based, mouse
[1] = test system: Ba/F3 cells expressing BCR-ABL1E255V; assay: Annexin V/7-AAD apoptosis assay in Ba/F3 BCR-ABL1 E255V cells; details: 72 h, CCmut3 vs EV
Description: (§1) For analysis of apoptosis and cell death, cells were pelleted and resuspended in Annexin V-binding buffer (BD Biosciences), stained with anti-Annexin V-APC (BD Biosciences or Life Technologies) and 7-AAD (BD Biosciences or Life Technologies) and analyzed on a BD FACSCanto flow cytometer. In addition to the APC and 7-AAD channels, GFP- and mCherry-positive cells were also recorded.
as §1, with “apoptosis and necrotic cell death,” for “apoptosis and cell death,”, “anti-Annexin V-APC and 7-AAD” for “anti-Annexin V-APC (BD Biosciences or Life Technologies) and 7-AAD”

Ba/F3-P210 cells = assay: 7-AAD and Annexin V staining of protein-treated Ba/F3-P210 cells; details: proteins 30 μM, imatinib 2.5 μM; 48 hours post treatment
Description: 0.5 μL of 1 mM 7-AAD (Invitrogen) was added to each sample, followed by a 45 minute incubation on ice. […] Analysis was performed using the FACS Canto-II (BD BioSciences, University of Utah Core Facility) with FACS Diva software. 7-AAD and APC were excited at 488 and 635 nm wavelengths, and emissions were detected at 660 nm. Percentage of apoptosis/necrosis was calculated by the percentage of cells that stained positive for 7-AAD and/or APC. Independent treatments were tested three times (n=3).

[2] = test system: Ba/F3 cells expressing BCR-ABL1T315I; assay: Proliferation of transfected Ba/F3 BCR-ABL1 T315I cells (MTS assay); details: CCmut3 vs EV; for proliferation, in words: MTS assay at 72 and 96 h
Description: Stable recombinant Ba/F3 cells transduced with wild type p210 BCR-ABL1 (Daley, G. Q., et al. (1991) Proc. Natl. Acad. Sci. U.S.A. 88, 11335-11338), the kinase domain mutants p210^T315I p210^[…], or the compound mutant p210^E255V/T315I were as previously described (La Rosee, P., et al. (2002) Cancer Res. 62, 7149-7153; O'Hare, T., et al. (2004) Blood 104, 2532-2539). These cells were cultured in RPMI with 10% FBS, 1% penicillin, streptomycin, glutamine, and 0.1% gentamycin (RPMI1640). Additionally 0.1% MycoZap™ (Lonza Bio, Basel, Switzerland) was added to prevent mycoplasma contamination. The non-transduced parental Ba/F3 cell line was grown in RPMI1640 supplemented with 20% WEHI-3B conditioned medium as a source of murine IL-3 (Dexter, T. M., et al. (1980) J. Exp. Med. 152, 1036-1047). Ba/F3 cells were transfected with plasmid DNA using the Amaxa nucleofection system (Lonza Bio), following the manufacturer's instructions. Cells were sorted on a BD FACSAria cytometer (BD Biosciences, San Jose, Calif.) for double-positive cells expressing mCherry and GFP then returned to RPMI1640 for subsequent experiments.
Cell proliferation was assessed using the CellTiter 96® AQueous One Solution Cell Proliferation Assay (MTS assay, Promega) according to manufacturer instructions. Briefly, 5,000 viable cells were added to a single well in 96-well plate in 100 μL RPMI1640. Three independent samples were seeded in duplicate for each time point. […] In some experiments, cell proliferation was assessed using a Neubauer chamber and trypan blue dye exclusion.
Stable Ba/F3 cells transduced with native (p210) BCR-ABL1, the kinase domain mutants BCR-ABL1T315I, BCR-ABL1E255V, or the compound mutant BCR-ABL1E255V/T315I were cultured. […]
Cell proliferation was assessed using a […] viability assay (MTS assay) utilizing CellTiter 96® AQueous One Solution Cell Proliferation Assay (Promega) according to manufacturer instructions. […] Cell growth was assessed by MTS assay at 72 and 96 h. […] In patient sample experiments, cell proliferation was assessed by trypan blue exclusion.

[3] = test system: Ba/F3 cells expressing BCR-ABL1E255V/T315I; assay: Annexin V/7-AAD apoptosis assay in Ba/F3 BCR-ABL1 E255V/T315I cells; details: 72 h, CCmut3 vs EV
Description: as §1
as §1, with “apoptosis and necrotic cell death,” for “apoptosis and cell death,”, “anti-Annexin V-APC and 7-AAD” for “anti-Annexin V-APC (BD Biosciences or Life Technologies) and 7-AAD”

[4] = test system: Ba/F3 cells expressing native BCR-ABL1 (Ba/F3-p210); assay: Annexin V/7-AAD apoptosis assay in transfected Ba/F3-p210 cells
Description: (§2) Assays were run in triplicate (n=3).
as §1
as §1, with “apoptosis and necrotic cell death,” for “apoptosis and cell death,”, “anti-Annexin V-APC and 7-AAD” for “anti-Annexin V-APC (BD Biosciences or Life Technologies) and 7-AAD”

Ba/F3-p210-T315I cells = assay: Annexin V/7-AAD apoptosis assay in Ba/F3 BCR-ABL1 T315I cells; details: 72 h, CCmut3 vs EV
Description: as §2, §1
as §1, with “apoptosis and necrotic cell death,” for “apoptosis and cell death,”, “anti-Annexin V-APC and 7-AAD” for “anti-Annexin V-APC (BD Biosciences or Life Technologies) and 7-AAD”

B1: CCmut3: modified Bcr-Abl coiled-coil domain (residues 1-72) with mutations C38A, K39E, S41R, L45D, E48R, Q60E (protein)
chain: MVDPVGFAEAWKAQFPDSEPPRMELRSVGDIEQELERAEARIRRDEQRVNQERFRMIYLETLLAKEKKSYDR
apoptosis, in words [1]: increase of apoptosis
increase in apoptosis [1]: 6-8 fold and > 5 fold
apoptosis, in words ([1]; listed as CC^mut3): significant shift toward the apoptotic fraction
increase in apoptosis ([1]; listed as CC^mut3): 6-8 fold
induction of apoptosis/necrosis (Ba/F3-P210 cells): not statistically different from the untreated control
reduction of proliferation ([2]; 96 h, MTS assay): approximately 3 fold
proliferation, in words [2]: significant reduction of proliferative capacity; also recorded: lesser, yet significant difference was noted at the 72 h time point
proliferation, in words ([2]; listed as CC^mut3): significant reduction
apoptosis, in words [3]: Enhanced apoptosis; also recorded: effectively induced apoptosis
apoptosis, in words ([3]; listed as CC^mut3): significantly more apoptotic; also recorded: sensitive
apoptosis, in words ([4]; 72 h, CCmut3 vs EV): increases apoptosis
increase of apoptotic cells ([4]; 72 h, CCmut3 vs EV): approximately 3 fold
increase in apoptotic population ([4]; CC^mut3 versus EV control (FIG. 14B)): more than 30%
apoptosis, in words (Ba/F3-p210-T315I cells): increase of apoptosis
increase in apoptosis (Ba/F3-p210-T315I cells): 6-8 fold and > 5 fold
apoptosis, in words (Ba/F3-p210-T315I cells; listed as CC^mut3): significant shift toward the apoptotic fraction
increase in apoptosis (Ba/F3-p210-T315I cells; listed as CC^mut3): 6-8 fold
